The results in this text go back to patent US20220119534A1 (DRAGONFLY THERAPEUTICS, published 2022).

Substitutions are numbered along the chain they refer to. “And” between values parts separate entries of the source, which are not always exact repeats. Equal entries are not always repeated.

For assay [1], the target named is T1, mFc-hNKG2D (human, UniProt P26718 73-216).
T1 construct: extracellular domain; Made in house (Dragonfly Tx); the order of tag and ECD follows the name mFc-hNKG2D; also called mFc-tagged human NKG2D; not shown: mouse Fc tag
T1 sequence (looked up): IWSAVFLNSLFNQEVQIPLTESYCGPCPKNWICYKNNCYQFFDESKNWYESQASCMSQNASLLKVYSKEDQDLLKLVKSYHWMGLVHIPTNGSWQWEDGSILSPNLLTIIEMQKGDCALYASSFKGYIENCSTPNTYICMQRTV
As to the kind of experiment: SPR Biacore 8K 37 C; mFc-hNKG2D captured on anti-mFc chip, TriNKET as analyte; kinetics fit; average of 4. (SPR reads the build-up and loss of mass on a sensor chip optically.)

For assay [2], the target named is T2, mFc-cNKG2D (cynomolgus monkey, UniProt P61252 73-216).
T2 construct: extracellular domain; Made in house (Dragonfly Tx); also called recombinant cyno NKG2D extracellular domain (ECD); mFc-tagged cyno NKG2D dimer; not shown: mouse Fc tag
T2 sequence (looked up): T1 sequence (looked up) with D43N, T133I
Nature of the assay: SPR Biacore 37 C; mFc-tagged cyno NKG2D dimer, TriNKET as analyte; steady state affinity fit.

For assay [3], the target named is T3, Human CLEC12A-His (human, UniProt Q5QGZ9 65-265).
T3 construct: Recombinant soluble protein made in house (Dragonfly Tx); The hCLEC12A spot of the HuProt array is written under this molecule as well; also called hCLEC12A-His; hCLEC12A; not shown: His tag
T3 sequence: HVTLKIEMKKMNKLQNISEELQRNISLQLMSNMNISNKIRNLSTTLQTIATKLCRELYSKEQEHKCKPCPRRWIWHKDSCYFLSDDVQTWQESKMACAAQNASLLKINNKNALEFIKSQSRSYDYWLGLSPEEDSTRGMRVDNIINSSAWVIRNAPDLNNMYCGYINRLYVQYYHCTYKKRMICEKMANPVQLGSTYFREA
As to the kind of experiment: SPR Biacore 8K 37 C; TriNKET captured on anti-hFc chip, hCLEC12A-His as analyte; 1:1 fit; after 4 wks 40 C in CST pH 7.0, n=2.

For assay [4], the target named is T4, Human CD16a V158 (FcγRIIIa V158) (human, UniProt P08637 17-208, biotinylated (site not stated)).
T4 construct: V158 is the allele name in mature numbering; also called hCD16aV; hCD16a V158
T4 sequence (P08637 17-208 F176V limits assumed): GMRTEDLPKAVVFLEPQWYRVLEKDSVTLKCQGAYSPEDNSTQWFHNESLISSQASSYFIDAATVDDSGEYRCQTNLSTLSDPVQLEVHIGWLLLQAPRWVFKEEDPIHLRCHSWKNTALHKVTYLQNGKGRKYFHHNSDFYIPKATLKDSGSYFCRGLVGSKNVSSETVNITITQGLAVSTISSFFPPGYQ
As to the kind of experiment: SPR; biotinylated CD16a V158 captured on SA chip, TriNKET as analyte; 1:1 kinetic fit; control, n=3.

B1: F3'-1602 TriNKET (bispecific antibody, human IgG1, kappa)
chain: QLQLQESGPGLVKPSETLSLTCTVSGFSLTNYGLHWIRQPPGKCLEWIGVIWSGGKTDYNPSLKSRVTISKDTSKNQFSLKLSSVQAADTAVYYCAKYDYDDSLDYWGQGTLVTVSSGGGGSGGGGSGGGGSGGGGSDIQMTQSPSSLSASVGDRVTITCHASQNINFWLSWYQQKPGKAPKLLIYEASNLHTGVPSRFSGSGSGTRFTLTISSLQPEDIATYYCQQSHSYPLTFGCGTKLEIKGSDKTHTCPPCPAPELLGGPSVFLFPPKPKDTLMISRTPEVTCVVVDVSHEDPEVKFNWYVDGVEVHNAKTKPREEQYNSTYRVVSVLTVLHQDWLNGKEYKCKVSNKALPAPIEKTISKAKGQPREPRVYTLPPCRDELTKNQVSLTCLVKGFYPSDIAVEWESNGQPENNYKTTPPVLVSDGSFTLYSKLTVDKSRWQQGNVFSCSVMHEALHNHYTQKSLSLSPG
heavy: EVQLVESGGGLVKPGGSLRLSCAASGFTFSSYSMNWVRQAPGKGLEWVSSISSSSSYIYYADSVKGRFTISRDNAKNSLYLQMNSLRAEDTAVYYCARGAPIGAAAGWFDPWGQGTLVTVSSASTKGPSVFPLAPSSKSTSGGTAALGCLVKDYFPEPVTVSWNSGALTSGVHTFPAVLQSSGLYSLSSVVTVPSSSLGTQTYICNVNHKPSNTKVDKKVEPKSCDKTHTCPPCPAPELLGGPSVFLFPPKPKDTLMISRTPEVTCVVVDVSHEDPEVKFNWYVDGVEVHNAKTKPREEQYNSTYRVVSVLTVLHQDWLNGKEYKCKVSNKALPAPIEKTISKAKGQPREPQVCTLPPSRDELTENQVSLTCLVKGFYPSDIAVEWESNGQPENNYKTTPPVLDSDGSFFLYSWLTVDKSRWQQGNVFSCSVMHEALHNHYTQKSLSLSPG
light: DIQMTQSPSSVSASVGDRVTITCRASQGISSWLAWYQQKPGKAPKLLIYAASSLQSGVPSRFSGSGSGTDFTLTISSLQPEDFATYYCQQGVSFPRTFGGGTKVEIKRTVAAPSVFIFPPSDEQLKSGTASVVCLLNNFYPREAKVQWKVDNALQSGNSQESVTEQDSKDSTYSLSSTLTLSKADYEKHKVYACEVTHQGLSSPVTKSFNRGEC
notes: Trispecific F3' format: CLEC12A scFv-Fc paired with NKG2D Fab-Fc; Stressed and control samples of the stability studies are the same molecule; also called AB0237
Consider B1, for which the dissociation constant (Kd) (commonly the constant that tells how readily two partners part at equilibrium) is 721 nM in assay [1]; 829 nM and 828 nM and 935 nM and 719 nM in assay [2]; 0.86 nM in assay [3]; 212 nM in assay [4]. For the same molecule, the koff (in general, a measure of how fast the partners let go of each other) came to 0.000674 s⁻¹ in assay [3] and 0.024 s⁻¹ in assay [4]. The kon (commonly the rate constant with which the complex forms) stood at 784000 M⁻¹ s⁻¹ in assay [3] and 113000 M⁻¹ s⁻¹ in assay [4].
